{
  "source": "paper PMC9352680",
  "about": "“A comprehensive thermodynamic model for RNA binding by the Saccharomyces cerevisiae Pumilio protein PUF4”",
  "binders": {"B1": {"name": "Id_ii_S2_P4E.3_K4.2_C4.2_[C-2G]_[T-1C]_H4.2_A4.1_F4.1_T4.2_[G10C]_[T11A] (ssRNA)", "RNA": "UUUGAUUAAUAUGAUAUCGUUCUUUCUGCUAUAUAUUACAUUCUUUCUCGAUAUCAUAUUAAUCUUU"}, "B2": {"name": "Id_ii_S2_P4E.3_K4.2_C4.2_[C-2T]_[T-1G]_H4.2_A4.1_F4.1_T4.2_[G10A]_[T11A] (ssRNA)", "RNA": "B1 RNA with G28U, C29G, C39A"}, "B3": {"name": "Id_ii_S2_P4E.3_K4.2_C4.2_[C-2T]_H4.2_A4.1_F4.1_T4.2_[G10A]_[T11G] (ssRNA)", "RNA": "B1 RNA with G28U, C29U, C39A, A40G"}, "B4": {"name": "Id_ii_S2_P4E.3_K4.2_C4.2_[C-2G]_[T-1C]_H4.2_A4.1_F4.1_T4.2_[G10T]_[T11C] (ssRNA)", "RNA": "B1 RNA with C39U, A40C"}, "B5": {"name": "Id_ii_S2_P4E.3_K4.2_C4.2_[C-2T]_[T-1C]_H4.2_A4.1_F4.1_T4.2_[G10C] (ssRNA)", "RNA": "B1 RNA with G28U, A40U"}, "B6": {"name": "Id_ii_S2_P4E.3_K4.2_C4.2_[C-2T]_H4.2_A4.1_F4.1_T4.2 (ssRNA)", "RNA": "B1 RNA with G28U, C29U, C39G, A40U"}, "B7": {"name": "Id_ii_S2_P4E.3_K4.2_C4.2_[C-2A]_[T-1A]_H4.2_A4.1_F4.1_T4.2_[G10C]_[T11C] (ssRNA)", "RNA": "B1 RNA with G28A, C29A, A40C"}, "B8": {"name": "Id_ii_S2_P4E.3_K4.2_C4.2_[C-2T]_[T-1C]_H4.2_A4.1_F4.1_T4.2_[G10T]_[T11C] (ssRNA)", "RNA": "B1 RNA with G28U, C39U, A40C"}, "B9": {"name": "Id_ii_S2_P4E.3_K4.2_C4.2_[C-2A]_[T-1C]_H4.2_A4.1_F4.1_T4.2_[G10C]_[T11C] (ssRNA)", "RNA": "B1 RNA with G28A, A40C"}, "B10": {"name": "Id_ii_S2_P4E.3_K4.2_C4.2_[C-2T]_[T-1G]_H4.2_A4.1_F4.1_T4.2_[G10T]_[T11G] (ssRNA)", "RNA": "B1 RNA with G28U, C29G, C39U, A40G"}, "B11": {"name": "Id_ii_S2_P4E.3_K4.2_C4.2_[C-2A]_[T-1C]_H4.2_A4.1_F4.1_T4.2_[G10C]_[T11A] (ssRNA)", "RNA": "B1 RNA with G28A"}, "B12": {"name": "Id_ii_S2_P4E.3_K4.2_C4.2_[C-2T]_H4.2_A4.1_F4.1_T4.2_[G10A]_[T11A] (ssRNA)", "RNA": "B1 RNA with G28U, C29U, C39A"}, "B13": {"name": "Id_ii_S2_P4E.3_K4.2_C4.2_[C-2G]_H4.2_A4.1_F4.1_T4.2_[G10T]_[T11G] (ssRNA)", "RNA": "B1 RNA with C29U, C39U, A40G"}, "B14": {"name": "Id_ii_S2_P4E.3_K4.2_C4.2_[C-2G]_[T-1C]_H4.2_A4.1_F4.1_T4.2_[G10A]_[T11C] (ssRNA)", "RNA": "B1 RNA with C39A, A40C"}, "B15": {"name": "Id_ii_S2_P4E.3_K4.2_C4.2_[C-2T]_[T-1A]_H4.2_A4.1_F4.1_T4.2_[G10C]_[T11C] (ssRNA)", "RNA": "B1 RNA with G28U, C29A, A40C"}, "B16": {"name": "Id_ii_S2_P4E.3_K4.2_C4.2_[C-2G]_[T-1C]_H4.2_A4.1_F4.1_T4.2_[G10A] (ssRNA)", "RNA": "B1 RNA with C39A, A40U"}, "B17": {"name": "Id_ii_S2_P4E.3_K4.2_C4.2_[C-2T]_[T-1A]_H4.2_A4.1_F4.1_T4.2_[G10A] (ssRNA)", "RNA": "B1 RNA with G28U, C29A, C39A, A40U"}, "B18": {"name": "Id_ii_S2_P4E.3_K4.2_C4.2_[C-2T]_[T-1C]_H4.2_A4.1_F4.1_T4.2_[G10C]_[T11A] (ssRNA)", "RNA": "B1 RNA with G28U"}, "B19": {"name": "Id_ii_S2_P4E.3_K4.2_C4.2_[C-2T]_H4.2_A4.1_F4.1_T4.2_[G10C] (ssRNA)", "RNA": "B1 RNA with G28U, C29U, A40U"}, "B20": {"name": "Id_ii_S2_P4E.3_K4.2_C4.2_[C-2A]_[T-1C]_H4.2_A4.1_F4.1_T4.2_[G10C]_[T11G] (ssRNA)", "RNA": "B1 RNA with G28A, A40G"}, "B21": {"name": "Id_ii_S2_P4E.3_K4.2_C4.2_[C-2T]_[T-1A]_H4.2_A4.1_F4.1_T4.2_[G10C]_[T11A] (ssRNA)", "RNA": "B1 RNA with G28U, C29A"}, "B22": {"name": "Id_ii_S2_P4E.3_K4.2_C4.2_[C-2A]_[T-1C]_H4.2_A4.1_F4.1_T4.2_[G10T]_[T11G] (ssRNA)", "RNA": "B1 RNA with G28A, C39U, A40G"}, "B23": {"name": "Id_ii_S2_P4E.3_K4.2_C4.2_[C-2T]_[T-1C]_H4.2_A4.1_F4.1_T4.2_[G10C]_[T11G] (ssRNA)", "RNA": "B1 RNA with G28U, A40G"}, "B24": {"name": "Id_ii_S2_P4E.3_K4.2_C4.2_[C-2A]_[T-1G]_H4.2_A4.1_F4.1_T4.2_[G10A]_[T11A] (ssRNA)", "RNA": "B1 RNA with G28A, C29G, C39A"}, "B25": {"name": "Id_ii_S2_P4E.3_K4.2_C4.2_[C-2T]_H4.2_A4.1_F4.1_T4.2_[G10T]_[T11G] (ssRNA)", "RNA": "B1 RNA with G28U, C29U, C39U, A40G"}, "B26": {"name": "Id_ii_S2_P4E.3_K4.2_C4.2_[C-2A]_[T-1C]_H4.2_A4.1_F4.1_T4.2_[G10A]_[T11C] (ssRNA)", "RNA": "B1 RNA with G28A, C39A, A40C"}, "B27": {"name": "Id_ii_S2_P4E.3_K4.2_C4.2_[C-2A]_[T-1C]_H4.2_A4.1_F4.1_T4.2_[G10T]_[T11C] (ssRNA)", "RNA": "B1 RNA with G28A, C39U, A40C"}, "B28": {"name": "Id_ii_S2_P4E.3_K4.2_C4.2_[C-2T]_H4.2_A4.1_F4.1_T4.2_[T11C] (ssRNA)", "RNA": "B1 RNA with G28U, C29U, C39G, A40C"}, "B29": {"name": "Id_ii_S2_P4E.3_K4.2_C4.2_[C-2T]_[T-1A]_H4.2_A4.1_F4.1_T4.2_[T11C] (ssRNA)", "RNA": "B1 RNA with G28U, C29A, C39G, A40C"}},
  "note": "Changes are numbered by the printed parent chain. Names may count otherwise.",
  "data": [
    {"biological_target": "T1, PUF4 RNA-binding domain (Saccharomyces cerevisiae, UniProt P25339 537-888)", "T1 sequence": "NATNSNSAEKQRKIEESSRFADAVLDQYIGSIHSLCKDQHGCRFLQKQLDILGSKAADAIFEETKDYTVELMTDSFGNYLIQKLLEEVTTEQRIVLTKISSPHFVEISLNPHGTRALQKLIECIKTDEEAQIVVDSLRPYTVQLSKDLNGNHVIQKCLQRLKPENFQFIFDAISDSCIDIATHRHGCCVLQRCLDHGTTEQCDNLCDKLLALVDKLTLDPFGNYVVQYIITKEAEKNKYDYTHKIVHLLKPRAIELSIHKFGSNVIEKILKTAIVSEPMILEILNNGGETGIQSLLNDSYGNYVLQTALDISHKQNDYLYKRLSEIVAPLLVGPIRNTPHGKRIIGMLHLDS", "experiment": "Mg; RNA-MaP; 20 mM Na-HEPES pH 7.4, 30 mM KOAc, 0.75 mM MgCl2, 0.1% Tween-20, 5% glycerol, 0.1 mg/mL BSA, 2 mM DTT; 25 C; 0.0125-409.6 nM protein", "conditions": "tags: N-His6-TEV cleaved; C-SNAP kept, Cy3B-labelled; label: tethered on chip by stalled RNA polymerase", "units": {"Kd": "nM"}, "values": [
      {"binder": "B1", "Kd": 56.6},
      {"binder": "B2", "Kd": 2.31},
      {"binder": "B3", "Kd": 700},
      {"binder": "B4", "Kd": 22.4},
      {"binder": "B5", "Kd": 6.91},
      {"binder": "B6", "Kd": 9.27},
      {"binder": "B7", "Kd": 56.4},
      {"binder": "B8", "Kd": 7},
      {"binder": "B9", "Kd": 8.87},
      {"binder": "B10", "Kd": 2.66},
      {"binder": "B11", "Kd": 16.8},
      {"binder": "B12", "Kd": 141},
      {"binder": "B13", "Kd": 11.2},
      {"binder": "B14", "Kd": 57.7},
      {"binder": "B15", "Kd": 14.9},
      {"binder": "B16", "Kd": 16.7},
      {"binder": "B17", "Kd": 17},
      {"binder": "B18", "Kd": 11.5},
      {"binder": "B19", "Kd": 3.66},
      {"binder": "B20", "Kd": 159},
      {"binder": "B21", "Kd": 17.5},
      {"binder": "B22", "Kd": 135},
      {"binder": "B23", "Kd": 8.91},
      {"binder": "B24", "Kd": 135},
      {"binder": "B25", "Kd": 6.27},
      {"binder": "B26", "Kd": 13.3},
      {"binder": "B27", "Kd": 10.6},
      {"binder": "B28", "Kd": 5.53},
      {"binder": "B29", "Kd": 10.2}
    ]}
  ]
}
